# Measurements published in patent publication US20220098307A1 (WUHAN YZY BIOPHARMA, published 2022).
# B1: M3IC-G2 (bispecific antibody)
# chain 1: EVKLDETGGGLVQPGRPMKLSCVASGFTFSDYWMNWVRQSPEKGLEWVAQIRNKPYNYETYYSDSVKGRFTISRDDSKSSVYLQMNNLRVEDMGIYYCTGSYYGMDYWGQGTSVTVSSASTKGPSVFPLAPSSKSTSGGTAALGCLVKDYFPEPVTVSWNSGALTSGVHTFPAVLQSSGLYSLSSVVTVPSSSLGTQTYICNVNHKPSNTKVDKKVEPKSCGGGGSGGGGSQVQLVESGGGVVQPGRSLRLSCAASGFTFSTYAMNWVRQAPGKGLEWVARIRSKYNNYATYYADSVKDRFTISRDDSKNTLYLQMNSLRAEDTAVYYCARHGNFGNSYVSWFAYWGQGTLVTVSSASVAAPSVFIFPPSDEQLKSGTASVVCLLNNFYPREAKVQWKVDNALQSGNSQESVTEQDSKDSTYSLSSTLTLSKADYEKHKVYACEVTHQGLSSPVTKSFNRGECDKTHTCPPCPAPPVAGPSVFLFPPKPKDTLMISRTPEVTCVVVDVSHEDPEVQFNWYVDGVEVHNAKTKPREEQFNSTFRVVSVLTVVHQDWLNGKEYKCKVSNKGLPAPIEKTISKTKGQPREPQVYTLPPCRDELTKNQVSLWCLVKGFYPSDIAVEWESNGQPENNYKTTPPVLDSDGSFFLYSKLTVDKSRWQQGNVFSCSVMHEALHNHYTQKSLSLSPGK
# chain 2: QTVVTQEPSLTVSPGGTVTLTCRSSTGAVTTSNYANWVQQKPGQAPRGLIGGTNKRAPGVPARFSGSLLGGKAALTLSGVQPEDEAEYYCALWYSNLWVFGGGTKVEIKSSASTKGPSVFPLAPSSKSTSGGTAALGCLVKDYFPEPVTVSWNSGALTSGVHTFPAVLQSSGLYSLSSVVTVPSSSLGTQTYICNVNHKPSNTKVDKKVEPKSC
# heavy: EVKLDETGGGLVQPGRPMKLSCVASGFTFSDYWMNWVRQSPEKGLEWVAQIRNKPYNYETYYSDSVKGRFTISRDDSKSSVYLQMNNLRVEDMGIYYCTGSYYGMDYWGQGTSVTVSSASTKGPSVFPLAPSSKSTSGGTAALGCLVKDYFPEPVTVSWNSGALTSGVHTFPAVLQSSGLYSLSSVVTVPSSSLGTQTYICNVNHKPSNTKVDKKVEPKSCDKTHTCPPCPAPPVAGPSVFLFPPKPKDTLMISRTPEVTCVVVDVSHEDPEVQFNWYVDGVEVHNAKTKPREEQFNSTFRVVSVLTVVHQDWLNGKEYKCKVSNKGLPAPIEKTISKTKGQPREPQVCTLPPSRDELTKNQVSLSCAVKGFYPSDIAVEWESNGQPENNYKTTPPVLDSDGSFFLVSKLTVDKSRWQQGNVFSCSVMHEALHNRFTQKSLSLSPGK
# light: DVVMTQTPLSLPVSLGDQASISCRSSQSLVHSNGNTYLRWYLQKPGQSPKVLIYKVSNRFSGVPDRFSGSGSGTDFTLKISRVEAEDLGVYFCSQSTHVPWTFGGGTKLEIKRTVAAPSVFIFPPSDEQLKSGTASVVCLLNNFYPREAKVQWKVDNALQSGNSQESVTEQDSKDSTYSLSSTLTLSKADYEKHKVYACEVTHQGLSSPVTKSFNRGEC
# notes: structure 3 isotype control; CH2 G2CH2
# B2: M3IC-AG2 (bispecific antibody)
# chain 1: EVKLDETGGGLVQPGRPMKLSCVASGFTFSDYWMNWVRQSPEKGLEWVAQIRNKPYNYETYYSDSVKGRFTISRDDSKSSVYLQMNNLRVEDMGIYYCTGSYYGMDYWGQGTSVTVSSASTKGPSVFPLAPSSKSTSGGTAALGCLVKDYFPEPVTVSWNSGALTSGVHTFPAVLQSSGLYSLSSVVTVPSSSLGTQTYICNVNHKPSNTKVDKKVEPKSCGGGGSGGGGSQVQLVESGGGVVQPGRSLRLSCAASGFTFSTYAMNWVRQAPGKGLEWVARIRSKYNNYATYYADSVKDRFTISRDDSKNTLYLQMNSLRAEDTAVYYCARHGNFGNSYVSWFAYWGQGTLVTVSSASVAAPSVFIFPPSDEQLKSGTASVVCLLNNFYPREAKVQWKVDNALQSGNSQESVTEQDSKDSTYSLSSTLTLSKADYEKHKVYACEVTHQGLSSPVTKSFNRGECDKTHTCPPAPAPPVAGPSVFLFPPKPKDTLMISRTPEVTCVVVDVSHEDPEVQFNWYVDGVEVHNAKTKPREEQFNSTFRVVSVLTVVHQDWLNGKEYKCKVSNKGLPAPIEKTISKTKGQPREPQVYTLPPCRDELTKNQVSLWCLVKGFYPSDIAVEWESNGQPENNYKTTPPVLDSDGSFFLYSKLTVDKSRWQQGNVFSCSVMHEALHNHYTQKSLSLSPGK
# chain 2: QTVVTQEPSLTVSPGGTVTLTCRSSTGAVTTSNYANWVQQKPGQAPRGLIGGTNKRAPGVPARFSGSLLGGKAALTLSGVQPEDEAEYYCALWYSNLWVFGGGTKVEIKSSASTKGPSVFPLAPSSKSTSGGTAALGCLVKDYFPEPVTVSWNSGALTSGVHTFPAVLQSSGLYSLSSVVTVPSSSLGTQTYICNVNHKPSNTKVDKKVEPKSC
# heavy: EVKLDETGGGLVQPGRPMKLSCVASGFTFSDYWMNWVRQSPEKGLEWVAQIRNKPYNYETYYSDSVKGRFTISRDDSKSSVYLQMNNLRVEDMGIYYCTGSYYGMDYWGQGTSVTVSSASTKGPSVFPLAPSSKSTSGGTAALGCLVKDYFPEPVTVSWNSGALTSGVHTFPAVLQSSGLYSLSSVVTVPSSSLGTQTYICNVNHKPSNTKVDKKVEPKSCDKTHTCPPAPAPPVAGPSVFLFPPKPKDTLMISRTPEVTCVVVDVSHEDPEVQFNWYVDGVEVHNAKTKPREEQFNSTFRVVSVLTVVHQDWLNGKEYKCKVSNKGLPAPIEKTISKTKGQPREPQVCTLPPSRDELTKNQVSLSCAVKGFYPSDIAVEWESNGQPENNYKTTPPVLDSDGSFFLVSKLTVDKSRWQQGNVFSCSVMHEALHNRFTQKSLSLSPGK
# light: DVVMTQTPLSLPVSLGDQASISCRSSQSLVHSNGNTYLRWYLQKPGQSPKVLIYKVSNRFSGVPDRFSGSGSGTDFTLKISRVEAEDLGVYFCSQSTHVPWTFGGGTKLEIKRTVAAPSVFIFPPSDEQLKSGTASVVCLLNNFYPREAKVQWKVDNALQSGNSQESVTEQDSKDSTYSLSSTLTLSKADYEKHKVYACEVTHQGLSSPVTKSFNRGEC
# notes: structure 3 isotype control; CH2 AG2CH2
# B3: M3IC-DG2 (bispecific antibody)
# chain 1: EVKLDETGGGLVQPGRPMKLSCVASGFTFSDYWMNWVRQSPEKGLEWVAQIRNKPYNYETYYSDSVKGRFTISRDDSKSSVYLQMNNLRVEDMGIYYCTGSYYGMDYWGQGTSVTVSSASTKGPSVFPLAPSSKSTSGGTAALGCLVKDYFPEPVTVSWNSGALTSGVHTFPAVLQSSGLYSLSSVVTVPSSSLGTQTYICNVNHKPSNTKVDKKVEPKSCGGGGSGGGGSQVQLVESGGGVVQPGRSLRLSCAASGFTFSTYAMNWVRQAPGKGLEWVARIRSKYNNYATYYADSVKDRFTISRDDSKNTLYLQMNSLRAEDTAVYYCARHGNFGNSYVSWFAYWGQGTLVTVSSASVAAPSVFIFPPSDEQLKSGTASVVCLLNNFYPREAKVQWKVDNALQSGNSQESVTEQDSKDSTYSLSSTLTLSKADYEKHKVYACEVTHQGLSSPVTKSFNRGECDKTHTCPPCPAPPVAGPSVFLFPPKPKDTLMISRTPEVTCVVVAVSHEDPEVQFNWYVDGVEVHNAKTKPREEQFNSTFRVVSVLTVVHQDWLNGKEYKCKVSNKGLPAPIEKTISKTKGQPREPQVYTLPPCRDELTKNQVSLWCLVKGFYPSDIAVEWESNGQPENNYKTTPPVLDSDGSFFLYSKLTVDKSRWQQGNVFSCSVMHEALHNHYTQKSLSLSPGK
# chain 2: QTVVTQEPSLTVSPGGTVTLTCRSSTGAVTTSNYANWVQQKPGQAPRGLIGGTNKRAPGVPARFSGSLLGGKAALTLSGVQPEDEAEYYCALWYSNLWVFGGGTKVEIKSSASTKGPSVFPLAPSSKSTSGGTAALGCLVKDYFPEPVTVSWNSGALTSGVHTFPAVLQSSGLYSLSSVVTVPSSSLGTQTYICNVNHKPSNTKVDKKVEPKSC
# heavy: EVKLDETGGGLVQPGRPMKLSCVASGFTFSDYWMNWVRQSPEKGLEWVAQIRNKPYNYETYYSDSVKGRFTISRDDSKSSVYLQMNNLRVEDMGIYYCTGSYYGMDYWGQGTSVTVSSASTKGPSVFPLAPSSKSTSGGTAALGCLVKDYFPEPVTVSWNSGALTSGVHTFPAVLQSSGLYSLSSVVTVPSSSLGTQTYICNVNHKPSNTKVDKKVEPKSCDKTHTCPPCPAPPVAGPSVFLFPPKPKDTLMISRTPEVTCVVVAVSHEDPEVQFNWYVDGVEVHNAKTKPREEQFNSTFRVVSVLTVVHQDWLNGKEYKCKVSNKGLPAPIEKTISKTKGQPREPQVCTLPPSRDELTKNQVSLSCAVKGFYPSDIAVEWESNGQPENNYKTTPPVLDSDGSFFLVSKLTVDKSRWQQGNVFSCSVMHEALHNRFTQKSLSLSPGK
# light: DVVMTQTPLSLPVSLGDQASISCRSSQSLVHSNGNTYLRWYLQKPGQSPKVLIYKVSNRFSGVPDRFSGSGSGTDFTLKISRVEAEDLGVYFCSQSTHVPWTFGGGTKLEIKRTVAAPSVFIFPPSDEQLKSGTASVVCLLNNFYPREAKVQWKVDNALQSGNSQESVTEQDSKDSTYSLSSTLTLSKADYEKHKVYACEVTHQGLSSPVTKSFNRGEC
# notes: structure 3 isotype control; CH2 DG2CH2
# Columns and labels:
# [1] = biological target: T1, Human CD3ε (human, UniProt P07766 23-126); assay: flow cytometry, human T cells
# T1 construct: CD3 on T cells isolated from human whole blood
# In short: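 Cell binding by flow cytometry: antigen-positive tumor cells (e.g. MM.1S or RPMI 8226 for CD38) or CD3+ T cells, 2×10⁵/well, with antibody 3-fold diluted over 11 points from 3000 nM, 2 h at 4° C with shaking.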
# [2] = biological target: T2, human CEA (human, UniProt P06731 35-685); assay: flow cytometry, human tumor cells (table of the CEA series)
# T2 sequence: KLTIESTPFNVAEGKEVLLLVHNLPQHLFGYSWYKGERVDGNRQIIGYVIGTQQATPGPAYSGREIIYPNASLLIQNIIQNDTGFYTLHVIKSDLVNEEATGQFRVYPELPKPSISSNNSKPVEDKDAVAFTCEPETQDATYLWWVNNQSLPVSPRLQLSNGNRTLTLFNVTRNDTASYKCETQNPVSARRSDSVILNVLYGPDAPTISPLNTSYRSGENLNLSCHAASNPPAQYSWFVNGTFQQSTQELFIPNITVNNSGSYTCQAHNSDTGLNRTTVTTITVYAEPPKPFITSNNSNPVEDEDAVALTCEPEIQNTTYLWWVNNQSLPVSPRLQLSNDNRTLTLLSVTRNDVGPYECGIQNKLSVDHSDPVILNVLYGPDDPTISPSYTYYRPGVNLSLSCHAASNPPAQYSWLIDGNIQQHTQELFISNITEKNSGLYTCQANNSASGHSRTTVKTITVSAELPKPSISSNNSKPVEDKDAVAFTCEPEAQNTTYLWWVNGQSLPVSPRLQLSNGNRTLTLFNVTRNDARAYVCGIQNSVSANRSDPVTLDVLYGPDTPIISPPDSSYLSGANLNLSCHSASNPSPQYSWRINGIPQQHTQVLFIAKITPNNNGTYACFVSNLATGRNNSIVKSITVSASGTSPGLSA
# Source text: 1) Cell preparation: T cells isolated from CD3-positive human whole blood were used for a CD3 end affinity detection of multifunctional antibody molecule; positive tumor cells of corresponding antigen were used for detecting affinity of tumor antigen; for example, CD38-positive MM. 1S cells (purchased from the Cell Resource Center of Shanghai Institutes for Biological Sciences, Chinese Academy of Sciences) or RPMI 8226 cells (purchased from the Cell Resource Center of Shanghai Institutes for Biological Sciences, Chinese Academy of Sciences) were used for CD38 antigen detection, and PD-L1 positive H358 cells (purchased from the Cell Resource Center of Shanghai Institutes for Biological Sciences, Chinese Academy of Sciences) were used for PD-L1 antigen detection, and so on. The cells were resuspended with 1% FBS-PBS, adjusted to a density of 4×10⁶/ml, and 50 μl of cells were taken from each well, and then plated at 2×10⁵ per well. Cell plating was operated on ice
# 2) Addition of the antibody: according to the experimental design, the antibody was diluted gradually, and dilution of antibody was operated on ice. For example, the initial concentration of antibody for dilution was 3000 nM, and the antibody was diluted by 3 times with 11 concentration gradients. The diluted antibody was added to a cell well at 50 μl per well, mixed well, and shaked and incubated at 4° C. 1100 rpm/min for 2 h; after washing, the cells were resuspend in 1% FBS-PBS, and a diluted secondary antibody PE anti-human IgG FC (Biolegend, 409304) was added with a final concentration of 8 ug/ml and a volume of 50 μl/well. At the same time, a well only added with cells and secondary antibody was set as a control, the components were mixed well, and incubated under shaking at 1100 rpm/min at 4° C. for 1 h;
# 5) Data analysis: the data was analyzed by a flow analysis software FlowJo 7.6 thereby obtaining an average fluorescence intensity of the specific antibody concentration, plotted by a Graphpad Prism 5 with the antibody concentration (nM) as an abscissa and the average fluorescence intensity as an ordinate; the EC50 value was calculated by the method of One site—Specific binding, and the EC50 value indicated the cell affinity of the antibody to the corresponding target antigen.
Binder,EC50 [1] [nM],binding result [2]
B1,701,no binding
B2,674,no binding
B3,710,no binding
